# Data reported in the RNAGym collection of RNA variant scans (doi:10.1073/pnas.2313332121).
# B1: TPR t1 (parent)
# chain: GACCAAUCUGCCCUCAGAGCUCGAGAACAUCUUCGGAUGCAGAGGAGGCAGGCUUCGGUGGCGCGAUAGCGCCAACGUCCUCAACCUCCAAUGCAUCCCACCACAUGAUGAUGCCUGAAGAGCCUUGGUUUUUUG
# Variants of: B1
# Assay: polymerase ribozyme fitness, log enrichment relative to wild type (log ratio); higher = more active; in vitro selection for triplet polymerase activity
# Method in brief: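 Input and output libraries were sequenced on Illumina after a single in vitro selection round, run in triplicate on PCR-built, transcribed mutant libraries of each subunit of a heterodimeric triplet polymerase ribozyme. Selection annealed libraries to a biotinylated primer, the partner subunit and triplets, incubated them frozen at −7 °C, then gel-excised extended constructs for streptavidin-bead capture and RT-PCR. Genotypes with ≥10 input reads and ≥1 read per output were kept. Fitness is the logarithm, taken in base 2, of genotype enrichment divided by wild-type enrichment, using inverse-variance-weighted replicate averages.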
row,Variant,polymerase ribozyme fitness (log ratio)
1,C70U U112A,0.732
2,C70U U116A,-3.33
3,G71A A74C A105C,-5.44
4,G71A A74G C88A C97A G117C,-5.77
5,G71A A83G,-1.61
6,G71A A83G U133G,-2.31
7,G71A A83U C115U C123G G135U,-4.34
8,G71A A84C,-0.48
9,G71A A91C C114U U133C,-2.15
10,G71A A105U,-3.04
11,G71A A111C,-0.4
12,G71A A119G,-0.102
13,G71A C72G C114U,-4.69
14,G71A C73U,-2.15
15,G71A C79G G127A,-3.33
16,G71A C79U A83G U129G,-3.32
17,G71A C82A,-1.72
18,G71A C86A A111C G113C,-5.65
19,G71A C89G,-2.03
20,G71A C94G,-2.57
21,G71A C94U U96A,-2.05
22,G71A C99U,-3.17
23,G71A C101A G113U,-5.02
24,G71A C102A,-2.99

row,Variant,polymerase ribozyme fitness (log ratio)
1,G71A C114U G127U,-5.52
2,G71A C115A C123U,-2.76
3,G71A C123A,-0.22
4,G71A C124U,1.42
5,G71A G77A U78G,-4.6
6,G71A G110U,-2.36
7,G71A G117A,-1.44
8,G71A G120C G122A,-1.43
9,G71A G120U,0.349
10,G71A G120U U126C,-1.26
11,G71A G127A,-2.33
12,G71A U78G A84U,-2.58
13,G71A U92A A121U,-2.31
14,G71A U96A U116A,-3.94
15,G71A U116A,-3.85
16,G71A U116C,-1.26
17,G71A U129G,-2.44
18,G71A U130C,0.53
19,G71A U133G,-0.389
20,G71C A75G,-0.0431
21,G71C A84G C104A U109G G117U C124A U130G,-5.84
22,G71C C73U C79G A90U,-6.83
23,G71C C82A U112A A118U,-0.627
24,G71C C85A,-3.19

row,Variant,polymerase ribozyme fitness (log ratio)
1,G71C C85U,-2.23
2,G71C C85U U92C,-4.52
3,G71C C94A,-4.08
4,G71C C97U G117C,-5.75
5,G71C C102U,-3.11
6,G71C C104A,-3.63
7,G71C C114A,-2.75
8,G71C C114U,-3.55
9,G71C C114U G122A U129A,-4.82
10,G71C C124G G128U,-1.25
11,G71C C124U,0.16
12,G71C G77C C114G U116G,-5.32
13,G71C G110A,-2.2
14,G71C G113A,-1.54
15,G71C G113A G128A,-3.16
16,G71C G117U,-3.08
17,G71C U78G,-3.19
18,G71C U81C U129C U130A,-3.37
19,G71C U81G C97U U106A G120A,-3.76
20,G71C U87A C123A,-2.66
21,G71C U112C,-0.487
22,G71C U130G,-1.76
23,G71C U133A,-0.636
24,G71U A74U A95U U112G,-3.05

row,Variant,polymerase ribozyme fitness (log ratio)
1,G71U A83U,-0.358
2,G71U A84C,-0.343
3,G71U A84G U126C U133A,-2.74
4,G71U A91U U96C,-3.7
5,G71U A100U,-1.2
6,G71U A103C,-5.76
7,G71U A103G,-5.01
8,G71U A121G U125A,1.48
9,G71U C72A C89A G117A,-5.63
10,G71U C73G A95C C124U G128U U129C,-7.5
11,G71U C80A,-5.28
12,G71U C82A,-1.91
13,G71U C89U C101U C123U G128C,-1.14
14,G71U C94U G117C,-3.99
15,G71U C99U G120U,-4.26
16,G71U C99U U129A,-5.39
17,G71U C102U,-1.69
18,G71U C114G,-2.81
19,G71U C124U,1.13
20,G71U G93A C104U,-0.466
21,G71U G113C,-1.47
22,G71U G113C C114U G128A,-3.3
23,G71U G113U,-1.67
24,G71U G117A,-1.51

row,Variant,polymerase ribozyme fitness (log ratio)
1,G71U G120C,0.378
2,G71U G128U,-2.61
3,G71U G135C,0.388
4,G71U U78C C98U A119U,-1.19
5,G71U U81G,-4.34
6,G71U U81G U112A,-5.24
7,G71U U92A G93U,-3.61
8,G71U U96C,-0.38
9,G71U U116C,-0.726
10,G71U U125A,-1.21
11,G71U U129A,-1.8
12,G71U U129C,-0.505
13,G71U U130A,0.232
14,G71U U132A,0.382
15,C72A A75C U87G C102A U116A C124U U130A,-5.54
16,C72A A83U G128U,-2.86
17,C72A A90U C101A G122A,-3.86
18,C72A A95G C97G C104A A118U G127C,-5.66
19,C72A A108U,-5.64
20,C72A C79A C94A G127C,-2.85
21,C72A C82A,0.281
22,C72A C82A C97G C114G,-5.93
23,C72A C82G A91C G93C,-3.15
24,C72A C82G C115A C123A,-1.36

row,Variant,polymerase ribozyme fitness (log ratio)
1,C72A C82U,0.305
2,C72A C85A,0.00801
3,C72A C88U,-0.32
4,C72A C89A U106A,-2.09
5,C72A C97U,0.226
6,C72A C98A,-4.32
7,C72A C99U U109G,-6.16
8,C72A C101A,-1.15
9,C72A C114A G122A,-2.11
10,C72A C114G,-2.31
11,C72A C115A,-0.416
12,C72A C123G,1.56
13,C72A G93A,-0.667
14,C72A G93A C98U U125G,-1.8
15,C72A G93C C102A U106A G110A U125A G127A,-6.51
16,C72A G107A C124G,-5.06
17,C72A G107U,-3.81
18,C72A G110A C115A,-2.51
19,C72A G117C,-4.09
20,C72A G117U,-2.32
21,C72A G135C,-0.133
22,C72A U78A,0.142
23,C72A U78C,-0.145
24,C72A U81C C82A,-1.12

row,Variant,polymerase ribozyme fitness (log ratio)
1,C72A U92A,-2.67
2,C72A U92A A119G G127C,-1.04
3,C72A U96A,-1.74
4,C72A U109C,-2.36
5,C72A U112C,1.48
6,C72A U112C G127C,0.93
7,C72G A83G C115A,-4.27
8,C72G A90U,-1.11
9,C72G A100U,-0.592
10,C72G A108G G120A C124G U131G,-1.26
11,C72G A119U C124G,1.57
12,C72G C73U G128U,-3.92
13,C72G C79G U133A,-1.07
14,C72G C80U,-0.861
15,C72G C85G A100C A121C,-1.55
16,C72G C94G G113A G122U,-3.41
17,C72G C97A,-5.43
18,C72G C102A,-2.79
19,C72G C123G,1.26
20,C72G C124A,1.03
21,C72G C124G,1.51
22,C72G G93A C101A A111U,-4.69
23,C72G G93C,-1.92
